The target of assay [1] is Recombinant human β-synuclein (human) (UniProt Q16143). In words: SEC; Superose 12, 50 mM Tris/HCl pH 7.4, 100 mM NaCl, 1 mM EDTA, 5% glycerol, 0.5 ml/min; 20-50 µg per run; in vitro aged α-synuclein, β-synuclein or co-incubated mixtures; mass estimated from gel filtration standards.
For assay [2], the target named is A53T mutant α-synuclein (human) (UniProt P37840).
The target in assay [3] is Recombinant human α-synuclein (human) (UniProt P37840).
Assay [4] deals with A30P mutant α-synuclein (human) (UniProt P37840).

Take “Recombinant human β-synuclein (from UniProt Q16143 1-134) (natural protein)”: the stoichiometry N in assay [1] was 4. In addition, the reduction of isoaspartate formed in A53T α-synuclein on co-incubation with approximately equimolar β-synuclein, 0-20 days of in vitro ageing (methanol diffusion assay); value after 20 days in assay [2] was found to be 47.9%. In addition, the reduction of isoaspartate formed in native α-synuclein on co-incubation with approximately equimolar β-synuclein, 0-20 days of in vitro ageing (methanol diffusion assay); value after 20 days in assay [3] is 72.2%. Moreover, in assay [4], the reduction of isoaspartate formed in A30P α-synuclein on co-incubation with approximately equimolar β-synuclein, 0-20 days of in vitro ageing (methanol diffusion assay); value after 20 days was 84.3%.

The values above are taken from PMC3632608.
